Test results taken from PMC7052167, “TCR–pMHC bond conformation controls TCR ligand discrimination” (Cellular and Molecular Immunology, 2019).

Tests used:
5C.C7 TCR = experiment: Single-molecule FRET (smFRET) measurement of TCR–pMHC bond distance on lipid bilayer (TIRF); assay type: cell-based, mouse; conditions: 1 µM LA, 1 h pretreatment and continuous presence, smFRET 37 °C, K5, MCC, 102S, 339–1295 trajectories per histogram
Method: We next performed Cy3/Cy5 single-molecule FRET (smFRET) on a lipid bilayer to measure the conformations of single TCR–pMHC bonds using TIRF microscopy (Fig. 2 and Fig. S1b). TCR–pMHC bond formation at live T-cell membrane brought the donor Cy3 and the acceptor Cy5 into close enough proximity to produce smFRET (Figs. 1a and 2a). The fluorescent intensities of Cy3 and Cy5 were simultaneously recorded in real time (Fig. 2b, top panel, and Fig. S4a), and the EFRET values were calculated based on the fluorescence intensities of the donor Cy3 and the acceptor Cy5 (Fig. 2b, bottom panel). […] By plotting the EFRET histogram and fitting it with a Gaussian function, we determined the most probale EFRET value of 0.7, corresponding to a 47 ± 3 Å distance between the 5C.C7 TCR and the super agonist K5 pMHC in a representative smFRET trajectory (Fig. 2c). […] We further measured the average TCR–pMHC bond distances using ensemble FRET on both a lipid bilayer and a glass surface (Figs. S4b and S7), and the results confirmed the single-bond measurements obtained using smFRET (Fig. 2d).
For the FRET measurements between TCRs and pMHCs on the cell surface (FRET1), we generated a peptide-exchangeable CLIP-IE^k molecule.[41] […] The protein fractions were analyzed by SDS-PAGE. […]

[1] = tested on: TCR microclusters of 5C.C7 T cells; experiment: TCR microcluster formation at the T-cell synapse; assay type: cell-based, mouse; conditions: 1 µM LA
Description: TCRs form microclusters upon antigen stimulation (Movie S4). To measure the conformational dynamics of single TCR–pMHC bonds without possible interference from TCR microclusters, we used latrunculin A (LA) to prevent the formation of TCR microclusters during smFRET measurements. […] We then performed smFRET in the absence of TCR microclusters.
To test whether TCR–CD3ζ conformational changes were dependent on TCR signaling, we used an Src kinase inhibitor PP2[27] to block TCR signaling. Consistent with the results of a previous study,[21] […] To reveal the role of TCR signaling in TCR–CD3ζ conformational changes, we plotted the time trajectories of the normalized intramolecular TCR–CD3ζ distances against the stimulation time in the absence and presence of PP2 (Fig. 4d). In the absence of PP2, the intracellular CD3ζ chain quickly separated from the TCR extracellular domain upon TCR engagement with the K5 pMHC and then reached a stable, fully extended TCR–CD3ζ conformation.
To measure the TCR–pMHC bond distance by smFRET in the absence of CD4 binding, T cells were incubated with 10 μg/mL anti-CD4 antibody (GK 1.5, Biolegend) and 0.027 µg/µL of Cy5-J1 scFV for 30 min at 4 °C. After three washes, the cells were added to a lipid bilayer containing Cy3-pMHCs, and smFRET assays were performed in the continuous presence of 10 μg/mL anti-CD4 antibody at 37 °C using TIRF microscopy. […]

[2] = target: 5C.C7 TCR (mouse (5C.C7 TCR transgenic mice)); experiment: FRET or BRET; ensemble Cy3/Cy5 FRET1 at the synapse; His-tagged Cy3-pMHC on a lipid bilayer (95 molecules/um^2) or a PEG-Ni2+ glass surface with ICAM-1 and B7-1; TCR on live primary 5C.C7 T cells labelled with scFv J1-Cy5; 37 °C
[3] = target: 5C.C7 TCR (mouse (5C.C7 TCR transgenic mice))
[4] = target: 5C.C7 TCR (mouse (5C.C7 TCR transgenic mice)); experiment: 2D micropipette adhesion frequency assay; biotinylated pMHC monomers on human RBCs by biotin–streptavidin; 5C.C7 T-cell blasts pre-incubated with 10 ug/mL anti-CD4 (GK 1.5); contact times 0.25-5 s, 50 cycles each; 25 °C (legend of Fig. 5); effective 2D constants from a probabilistic kinetic model

Row | Compound | average synaptic E FRET1 [2] | separation between the TCR and CD3ζ after TCR–pMHC binding (transmembrane GFP/Alexa568 FRET2, lipid bilayer, 37 °C) [3] [Å] | AcKa (effective 2D affinity) [4] [µm^4] | AcKon (effective 2D on-rate) [4] [µm^4 s^−1] | koff [4] [s⁻¹] | other results
1 | C/C1=C/C(=O)O[C@@H]2C[C@@H](CC[C@H](C)/C=C\C=C\CC1)O[C@@](O)([C@@H]1CSC(=O)N1)C2 [latrunculin A] |  |  |  |  |  | effect on TCR–pMHC bond distances (latrunculin A) (5C.C7 TCR): very close to those measured in the presence of TCR microclusters; effect on TCR–pMHC bond distances (latrunculin A) (5C.C7 TCR; listed as LA): no differences in the TCR–pMHC bond distances; effect of LA on TCR microcluster formation [1]: no TCR microclusters were observed
2 | K5(C)-Cy3 peptide on His-tagged IE^k (from UniProt P04230 30-225) (peptide-MHC) | 0.79 |  |  |  |  | 
3 | MCC(C)-Cy3 peptide on His-tagged IE^k (from UniProt P04230 30-225) (peptide-MHC) | 0.54 |  |  |  |  | 
4 | T102S(C)-Cy3 peptide on His-tagged IE^k (from UniProt P04230 30-225) (peptide-MHC) | 0.29 |  |  |  |  | 
5 | biotinylated monomeric IE^k covalently complexed with the 102S peptide (from UniProt P04230 30-225) (peptide-MHC) |  | 5 | 1.6e-05 | 2.4e-06 | 1.5 | 
6 | biotinylated monomeric IE^k covalently complexed with the K5 peptide (from UniProt P04230 30-225) (peptide-MHC) |  | 15 | 0.00037 | 3.6e-05 | 1 | 
7 | biotinylated monomeric IE^k covalently complexed with the MCC peptide (from UniProt P04230 30-225) (peptide-MHC) |  | 10 | 0.00015 | 2e-05 | 1.3 | 
